Experimental data from patent US6645762B2, “Synthases” (The Salk Institute for Biological Studies, priority 1998, dated 2003).

Tests used:
Type in all cases: biochemical
[1] = Sesquiterpene synthase activity assay with radiolabelled FPP (Ag-TLC and GC/MS product analysis); conditions: for products of FPP turnover, analyzed by Ag-TLC: radiolabelled FPP, FIG. 4
Description: (§1) Synthase activity assays were carried out based on the assay described in Vogeli and Chappell, Plant Physiol. 94:1860 (1990) and Vogeli, et al., Plant Physiol. 93:182 (1990). In general, radio-labeled (^3H or ^14C) substrate was incubated with enzyme at room temperature in a buffered magnesium salt solution (200 mM Tris, pH 8, 50 mM Mg chloride, 1 mM DTT, unless otherwise noted); hydrocarbon products were then selectively extracted into an organic solvent such as hexane. The hexane extract generally was treated with silica gel to remove prenyl alcohols and other oxygenated compounds generated by non-enzymatic hydrolysis of substrate, which partition inefficiently into hexane. Hydrocarbon products present in the hexane phase were quantitated by scintillation counting.
(§2) Substrate concentrations typically ranged from 0.1 nanomolar to 100 micromolar. In some assays, the substrate was not radiolabeled. Reactions generally were carried out in triplicate for each substrate concentration. Protein concentration was determined by the Bradford method. For determination of steady-state kinetic parameters, enzyme concentrations were chosen such that generation of products over time was linear throughout the course of the reaction.
(§3) Diterpene synthase assays typically were carried out using ^3H geranylgeranyl diphosphate (GGPP) and enzyme in 250 mM Tris, 10 mM Mg chloride, 1 mM DTT, pH 8.0. Sesquiterpene synthase assays typically were carried out using ^14C or ^3H FPP and enzyme in 100 mM Tris, 30 mM Mg chloride, 1 mM DTT, pH 8.0. Monoterpene synthase assays typically were carried out using ^3H GPP and enzyme. As a control for nonspecific binding of GPP by protein, identical reactions were set up which contained BSA, rather than enzyme.
(§4) Terpenoid hydrocarbon products are not readily separated by thin layer chromatography on normal or reverse-phase plates; however, some can be separated by argentation TLC (Ag-TLC), in which silica plates are first treated with silver nitrate. Ag-TLC described here generally followed the procedure described by Back et al., Arch. Biochem. Biophys. 315:527 (1994). A silica TLC plate was dipped in 15% silver nitrate (aqueous), then dried for 3-5 hours at 110° C. After spotting of tritiated enzymatic products (solvent extract), the plate was developed in benzene:hexane, ethyl acetate (50:50:1, by volume), sprayed with En^3Hance (NEN) fluorography spray, placed on film, and exposed for several days to several weeks. Long exposure times were generally necessary, as silver-nitrate treatment of the TLC plate appeared to cause quenching of the fluorography reagents fluorescence. Alternatively, ^14C labelled products were detected after one to two days without the use of fluorography spray.
Products of FPP turnover by the purified TEAS W273S mutant were analyzed by argentation thin-layer chromatography (Ag-TLC).
Reactions with FPP as substrate were carded out with ^14C FPP (9 μm) and enzyme (160 μm) in reaction buffer (20 μl). After incubating for 30 minutes at room temperature, products made by TEAS C440W/W273S were analyzed by Ag-TLC. […] The new product was distinct from both 5-epi-aristolochene and vetispiradiene. Several other products were also formed, many of which migrated slowly upon argentation TLC.
Reactions with radiolabeled FPP and TEAS Y520F enzyme were carried out essentially as described above. Reaction products were analysed by Ag-TLC and by GC/MS.

[2] = Diterpene synthase activity assay with radiolabelled GGPP (solvent extraction, scintillation counting, Ag-TLC); conditions: for hexane-extractable products formed from GGPP, analyzed by Ag-TLC: overnight incubation at room temperature, FIG. 3
Description: as §1
A subsequent extraction with a more polar organic solvent such as ethyl acetate was sometimes carried out. Oxygenated compounds more efficiently partition into ethyl acetate-type solvents. Compounds present in the ethyl acetate phase were also quantitated by scintillation counting.
as §2, §3, §4
The TEAS W273S enzyme and radiolabelled GGPP were incubated as described above and hydrocarbon products were extracted with hexane. Oxygenated products were then extracted with ethyl acetate.
The mutant TEAS C440W1W273S protein contains a tryptophan residue at position 440 and a serine residue at position 273. Assays with GGPP were carried out using 0.5 micromolar ^3H GGPP, various concentrations of unlabelled GGPP (Echelon), and enzyme. Reactions were incubated for 60 minutes at room temperature. […] Hexane-extractable products of GGPP turnover by the double mutant were analyzed by Ag-TLC. The products included two species (Rf=0.11 and 0.28) that were distinct from the hydrolysis product geranyl geraniol (Rf=0.0).To verify that products generated by TEAS C440W/W273S from GGPP were not the hydrolysis product, geranylgeraniol, a sample was analyzed by Ag-TLC. […]

[3] = Alkylation of enzyme by radiolabeled FPP; conditions: dependent upon the presence of MgCl2
Description: Reactions to determine the products made by TEAS W273E using FPP as substrate were carried out essentially as described above, using radioiabeled FPP. […] The alkylation was dependent upon the presence of MgCl2 in the reaction mixture. In control experiments, boiled W273E-TEAS, as well as wild-type TEAS and BSA, were not alkylated.

| Molecule | products of FPP turnover, hexane extract analyzed by GC/MS [1] | products of FPP turnover, analyzed by Ag-TLC [1] | counts in hexane and ethyl acetate extracts after incubation with radiolabelled GGPP ([2]; hydrocarbon products extracted with hexane, oxygenated products with ethyl acetate, compared with buffer alone) | hexane-extractable products formed from GGPP, analyzed by Ag-TLC [2] | conversion of GGPP to hexane-extractable products ([2]; 0.5 micromolar 3H GGPP plus unlabelled GGPP, 60 minutes at room temperature) | alkylation of the enzyme by FPP [3] |
| --- | --- | --- | --- | --- | --- | --- |
| TEAS W273S: TEAS mutant with serine at position 273 (protein, UniProt Q40577 1-548, looked up, variant W273S) 5-epi-aristolochene synthase: MASAAVANYEEEIVRPVADFSPSLWGDQFLSFSIKNQVAEKYAKEIEALKEQTRNMLLATGMKLADTLNLIDTIERLGISYHFEKEIDDILDQIYNQNSNCNDLCTSALQFRLLRQHGFNISPEIFSKFQDENGKFKESLASDVLGLLNLYEASHVRTHADDILEDALAFSTIHLESAAPHLKSPLREQVTHALEQCLHKGVPRVETRFFISSIYDKEQSKNNVLLRFAKLDFNLLQMLHKQELAQVSRWWKDLDFVTTLPYARDRVVECYFSALGVYFEPQYSQARVMLVKTISMISIVDDTFDAYGTVKELEAYTDAIQRWDINEIDRLPDYMKISYKAILDLYKDYEKELSSAGRSHIVCHAIERMKEVVRNYNVESTWFIEGYTPPVSEYLSNALATTTYYYLATTSYLGMKSATEQDFEWLSKNPKILEASVIICRVIDDTATYEVEKSRGQIATGIECCMRDYGISTKEAMAKFQNMAETAWKDINEGLLRPTPVSTEFLTPILNLARIVEVTYIHNLDGYTHPEKVLKPHIINLLVDSIKI | at least four terpene hydrocarbons | distinct from both 5-epi-aristolochene (Rf=0.78) and vetispiradiene (Rf=0.63) | counts that were significantly higher for both the hexane and ethyl acetate extracts | distinct from the products made by acid-catalyzed loss of diphosphates from GGPP |  |  |
| TEAS Y520F: TEAS protein in which Tyr520 is changed to Phe, SEQ ID NO:6 (protein) MASAAVANYEEEIVRPVADFSPSLWGDQFLSFSIDNQVAEKYAQEIEALKEQTRSMLLATGRKLADTLNLIDIIERLGISYHFEKEIDEILDQIYNQNSNCNDLCTSALQFRLLRQHGFNISPEIFSKFQDENGKFKESLASDVLGLLNLYEASHVRTHADDILEDALAFSTIHLESAAPHLKSPLREQVTHALEQCLHKGVPRVETRFFISSIYDKEQSKNNVLLRFAKLDFNLLQMLHKQELAQVSRWWKDLDFVTTLPYARDRVVECYFWALGVYFEPQYSQARVMLVKTISMISIVDDTFDAYGTVKELEAYTDAIQRWDINEIDRLPDYMKISYKAILDLYKDYEKELSSAGRSHIVCHAIERMKEVVRNYNVESTWFIEGYMPPVSEYLSNALATTTYYYLATTSYLGMKSATEQDFEWLSKNPKILEASVIICRVIDDTATYEVEKSRGQIATGIECCMRDYGISTKEAMAKFQNMAETAWKDINEGLLRPTPVSTEFLTPILNLARIVEVTFIHNLDGYTHPEKVLKPHIINLLVDSIKI | same GC retention time as authentic germacrene A and the same mass spectrum as authentic germacrene A |  |  |  |  |  |
| TEAS C440W: TEAS mutant with tryptophan at position 440 (protein, UniProt Q40577 1-548, looked up, variant C440W) 5-epi-aristolochene synthase: MASAAVANYEEEIVRPVADFSPSLWGDQFLSFSIKNQVAEKYAKEIEALKEQTRNMLLATGMKLADTLNLIDTIERLGISYHFEKEIDDILDQIYNQNSNCNDLCTSALQFRLLRQHGFNISPEIFSKFQDENGKFKESLASDVLGLLNLYEASHVRTHADDILEDALAFSTIHLESAAPHLKSPLREQVTHALEQCLHKGVPRVETRFFISSIYDKEQSKNNVLLRFAKLDFNLLQMLHKQELAQVSRWWKDLDFVTTLPYARDRVVECYFWALGVYFEPQYSQARVMLVKTISMISIVDDTFDAYGTVKELEAYTDAIQRWDINEIDRLPDYMKISYKAILDLYKDYEKELSSAGRSHIVCHAIERMKEVVRNYNVESTWFIEGYTPPVSEYLSNALATTTYYYLATTSYLGMKSATEQDFEWLSKNPKILEASVIIWRVIDDTATYEVEKSRGQIATGIECCMRDYGISTKEAMAKFQNMAETAWKDINEGLLRPTPVSTEFLTPILNLARIVEVTYIHNLDGYTHPEKVLKPHIINLLVDSIKI | single major sesquiterpene hydrocarbon product as well as a small number of minor hydroxylated products | at least one major terpenoid hydrocarbon product |  | no hexane-extractable products were detectable |  |  |
| TEAS C440W/W273S: TEAS double mutant, tryptophan at position 440 and serine at position 273, SEQ ID NO:10 (protein) MASAAVANYEEEIVRPVADFSPSLWGDQFLSFSIDNQVAEKYAQEIEALKEQTRSMLLATGRKLADTLNLIDIIERLGISYHFEKEIDEILDQIYNQNSNCNDLCTSALQFRLLRQHGFNISPEIFSKFQDENGKFKESLASDVLGLLNLYEASHVRTHADDILEDALAFSTIHLESAAPHLKSPLREQVTHALEQCLHKGVPRVETRFFISSIYDKEQSKNNVLLRFAKLDFNLLQMLHKQELAQVSRWWKDLDFVTTLPYARDRVVECYFSALGVYFEPQYSQARVMLVKTISMISIVDDTFDAYGTVKELEAYTDAIQRWDINEIDRLPDYMKISYKAILDLYKDYEKELSSAGRSHIVCHAIERMKEVVRNYNVESTWFIEGYMPPVSEYLSNALATTTYYYLATTSYLGMKSATEQDFEWLSKNPKILEASVIIWRVIDDTATYEVEKSRGQIATGIECCMRDYGISTKEAMAKFQNMAETAWKDINEGLLRPTPVSTEFLTPILNLARIVEVTYIHNLDGYTHPEKVLKPHIINLLVDSIKI |  |  |  | different from those generated by non-enzymatic degradation of geranylgeranyl diphosphate | converted GGPP to hexane-extractable products |  |
| boiled W273E-TEAS: boiled W273E-TEAS used as control in alkylation experiment (protein, UniProt Q40577 1-548, looked up, variant W273E, heat-denatured (boiled), boiled W273E-TEAS used as control in alkylation experiment) 5-epi-aristolochene synthase: MASAAVANYEEEIVRPVADFSPSLWGDQFLSFSIKNQVAEKYAKEIEALKEQTRNMLLATGMKLADTLNLIDTIERLGISYHFEKEIDDILDQIYNQNSNCNDLCTSALQFRLLRQHGFNISPEIFSKFQDENGKFKESLASDVLGLLNLYEASHVRTHADDILEDALAFSTIHLESAAPHLKSPLREQVTHALEQCLHKGVPRVETRFFISSIYDKEQSKNNVLLRFAKLDFNLLQMLHKQELAQVSRWWKDLDFVTTLPYARDRVVECYFEALGVYFEPQYSQARVMLVKTISMISIVDDTFDAYGTVKELEAYTDAIQRWDINEIDRLPDYMKISYKAILDLYKDYEKELSSAGRSHIVCHAIERMKEVVRNYNVESTWFIEGYTPPVSEYLSNALATTTYYYLATTSYLGMKSATEQDFEWLSKNPKILEASVIICRVIDDTATYEVEKSRGQIATGIECCMRDYGISTKEAMAKFQNMAETAWKDINEGLLRPTPVSTEFLTPILNLARIVEVTYIHNLDGYTHPEKVLKPHIINLLVDSIKI |  |  |  |  |  | not alkylated |
